US20180071366A1
Numbered stars: 1 amine (or outer) side, 2 acyl side, 3 side chain; on linkers, the order of the positions; unused ones are H or OH. Bridge positions count the residues as written; N and C are the ends. Square brackets hold non-standard residues; d marks the D form. * marks the point of attachment. C20 diacid = O=C(O)CCCCCCCCCCCCCCCCCCC(=O)*; γGlu = O=C(O)[C@H](CCC(=O)[*:2])N[*:1]; Hyp = O=C(O)[C@@H]1C[C@@H](O)CN1; NMeI = CC[C@H](C)[C@H](NC)C(=O)O; Aad = N[C@@H](CCCC(=O)O)C(=O)O; Orn = NCCC[C@H](N)C(=O)O; Sar = CNCC(=O)O

What was measured:
[1] = target: recombinant human amylin 3 receptor (hAMYR3) (human), P30988; assay: cell-based or functional assay
[2] = target: recombinant human calcitonin receptor (hCT-R) (human), P30988; assay: cell-based or functional assay
Chain of recombinant human calcitonin receptor (hCT-R) (human), P30988 (P30988 25-474): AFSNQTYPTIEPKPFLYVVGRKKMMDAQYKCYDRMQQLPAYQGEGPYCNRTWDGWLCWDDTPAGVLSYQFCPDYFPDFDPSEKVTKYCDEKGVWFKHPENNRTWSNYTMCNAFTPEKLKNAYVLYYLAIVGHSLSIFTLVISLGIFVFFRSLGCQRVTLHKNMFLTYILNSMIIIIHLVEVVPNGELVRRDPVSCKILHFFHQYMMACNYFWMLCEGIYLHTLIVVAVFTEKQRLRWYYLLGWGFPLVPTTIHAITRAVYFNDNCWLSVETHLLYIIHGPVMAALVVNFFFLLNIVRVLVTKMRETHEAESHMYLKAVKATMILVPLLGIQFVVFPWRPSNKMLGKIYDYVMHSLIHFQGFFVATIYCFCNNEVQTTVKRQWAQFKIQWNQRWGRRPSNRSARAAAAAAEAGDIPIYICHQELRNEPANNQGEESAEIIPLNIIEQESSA

Chain of recombinant human amylin 3 receptor (hAMYR3) (human), P30988 (P30988 25-474, chain 1 of 2): as the sequence (P30988 25-474) above
Chain of recombinant human amylin 3 receptor (hAMYR3) (human), P30988 (O60896 24-148, chain 2 of 2, further chain): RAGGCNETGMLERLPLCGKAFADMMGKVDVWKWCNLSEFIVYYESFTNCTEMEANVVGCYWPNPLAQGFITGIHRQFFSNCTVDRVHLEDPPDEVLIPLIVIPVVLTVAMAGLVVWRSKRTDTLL

Row | hAMYR3 EC50 [nM] (cAMP formation, 1321N1 cells expressing hAMYR3) [1] | hCT-R EC50 [nM] (cAMP formation, 1321N1 cells expressing hCT-R) [2] | Binder
1 | 0.01 nM | 0.037 nM | {C20 diacid-γGlu}-RDGTAT[Orn]ATERLA[Aad]FLQRSSF[Sar]A[NMeI]PSSTEVGSNT[Hyp]-NH2 (lactam 2-7; SMILES CC[C@H](C)[C@@H](C(=O)N1CCC[C@H]1C(=O)N[C@@H](CO)C(=O)N[C@@H](CO)C(=O)N[C@H](C(=O)N[C@@H](CCC(=O)O)C(=O)N[C@H](C(=O)NCC(=O)N[C@@H](CO)C(=O)N[C@@H](CC(N)=O)C(=O)N[C@H](C(=O)N1C[C@H](O)C[C@H]1C(N)=O)[C@@H](C)O)C(C)C)[C@@H](C)O)N(C)C(=O)[C@H](C)NC(=O)CN(C)C(=O)[C@H](Cc1ccccc1)NC(=O)[C@H](CO)NC(=O)[C@H](CO)NC(=O)[C@H](CCCNC(=N)N)NC(=O)[C@H](CCC(N)=O)NC(=O)[C@H](CC(C)C)NC(=O)[C@H](Cc1ccccc1)NC(=O)[C@H](CCCC(=O)O)NC(=O)[C@H](C)NC(=O)[C@H](CC(C)C)NC(=O)[C@H](CCCNC(=N)N)NC(=O)[C@H](CCC(=O)O)NC(=O)[C@@H](NC(=O)[C@H](C)NC(=O)[C@@H]1CCCNC(=O)C[C@H](NC(=O)[C@H](CCCNC(=N)N)NC(=O)CC[C@H](NC(=O)CCCCCCCCCCCCCCCCCCC(=O)O)C(=O)O)C(=O)NCC(=O)N[C@@H]([C@@H](C)O)C(=O)N[C@@H](C)C(=O)N[C@@H]([C@@H](C)O)C(=O)N1)[C@@H](C)O) [Compound 21]
2 | 0.706 nM | 1.93 nM | {C20 diacid-γGlu}-RDGTAT[Orn]ATERLA[Aad]FLQRTTF[Sar]A[NMeI]LSSTEVGSNT[Hyp]-NH2 (lactam 2-7; SMILES CC[C@H](C)[C@@H](C(=O)N[C@@H](CC(C)C)C(=O)N[C@@H](CO)C(=O)N[C@@H](CO)C(=O)N[C@H](C(=O)N[C@@H](CCC(=O)O)C(=O)N[C@H](C(=O)NCC(=O)N[C@@H](CO)C(=O)N[C@@H](CC(N)=O)C(=O)N[C@H](C(=O)N1C[C@H](O)C[C@H]1C(N)=O)[C@@H](C)O)C(C)C)[C@@H](C)O)N(C)C(=O)[C@H](C)NC(=O)CN(C)C(=O)[C@H](Cc1ccccc1)NC(=O)[C@@H](NC(=O)[C@@H](NC(=O)[C@H](CCCNC(=N)N)NC(=O)[C@H](CCC(N)=O)NC(=O)[C@H](CC(C)C)NC(=O)[C@H](Cc1ccccc1)NC(=O)[C@H](CCCC(=O)O)NC(=O)[C@H](C)NC(=O)[C@H](CC(C)C)NC(=O)[C@H](CCCNC(=N)N)NC(=O)[C@H](CCC(=O)O)NC(=O)[C@@H](NC(=O)[C@H](C)NC(=O)[C@@H]1CCCNC(=O)C[C@H](NC(=O)[C@H](CCCNC(=N)N)NC(=O)CC[C@H](NC(=O)CCCCCCCCCCCCCCCCCCC(=O)O)C(=O)O)C(=O)NCC(=O)N[C@@H]([C@@H](C)O)C(=O)N[C@@H](C)C(=O)N[C@@H]([C@@H](C)O)C(=O)N1)[C@@H](C)O)[C@@H](C)O)[C@@H](C)O) [Compound 23]
3 | 0.013 nM | 0.038 nM | {C20 diacid-γGlu}-RDGTAT[Orn]ATERLA[Aad]FLQRTTF[Sar]A[NMeI]PSSTEVGSNT[Hyp]-NH2 (lactam 2-7; SMILES CC[C@H](C)[C@@H](C(=O)N1CCC[C@H]1C(=O)N[C@@H](CO)C(=O)N[C@@H](CO)C(=O)N[C@H](C(=O)N[C@@H](CCC(=O)O)C(=O)N[C@H](C(=O)NCC(=O)N[C@@H](CO)C(=O)N[C@@H](CC(N)=O)C(=O)N[C@H](C(=O)N1C[C@H](O)C[C@H]1C(N)=O)[C@@H](C)O)C(C)C)[C@@H](C)O)N(C)C(=O)[C@H](C)NC(=O)CN(C)C(=O)[C@H](Cc1ccccc1)NC(=O)[C@@H](NC(=O)[C@@H](NC(=O)[C@H](CCCNC(=N)N)NC(=O)[C@H](CCC(N)=O)NC(=O)[C@H](CC(C)C)NC(=O)[C@H](Cc1ccccc1)NC(=O)[C@H](CCCC(=O)O)NC(=O)[C@H](C)NC(=O)[C@H](CC(C)C)NC(=O)[C@H](CCCNC(=N)N)NC(=O)[C@H](CCC(=O)O)NC(=O)[C@@H](NC(=O)[C@H](C)NC(=O)[C@@H]1CCCNC(=O)C[C@H](NC(=O)[C@H](CCCNC(=N)N)NC(=O)CC[C@H](NC(=O)CCCCCCCCCCCCCCCCCCC(=O)O)C(=O)O)C(=O)NCC(=O)N[C@@H]([C@@H](C)O)C(=O)N[C@@H](C)C(=O)N[C@@H]([C@@H](C)O)C(=O)N1)[C@@H](C)O)[C@@H](C)O)[C@@H](C)O) [Compound 24]
4 | 0.051 nM | 0.474 nM | {C20 diacid-γGlu}-RDGTAT[Orn]ATERLA[Aad]FLTRSSF[Sar]A[NMeI]LSSTEVGSST[Hyp]-NH2 (lactam 2-7; SMILES CC[C@H](C)[C@@H](C(=O)N[C@@H](CC(C)C)C(=O)N[C@@H](CO)C(=O)N[C@@H](CO)C(=O)N[C@H](C(=O)N[C@@H](CCC(=O)O)C(=O)N[C@H](C(=O)NCC(=O)N[C@@H](CO)C(=O)N[C@@H](CO)C(=O)N[C@H](C(=O)N1C[C@H](O)C[C@H]1C(N)=O)[C@@H](C)O)C(C)C)[C@@H](C)O)N(C)C(=O)[C@H](C)NC(=O)CN(C)C(=O)[C@H](Cc1ccccc1)NC(=O)[C@H](CO)NC(=O)[C@H](CO)NC(=O)[C@H](CCCNC(=N)N)NC(=O)[C@@H](NC(=O)[C@H](CC(C)C)NC(=O)[C@H](Cc1ccccc1)NC(=O)[C@H](CCCC(=O)O)NC(=O)[C@H](C)NC(=O)[C@H](CC(C)C)NC(=O)[C@H](CCCNC(=N)N)NC(=O)[C@H](CCC(=O)O)NC(=O)[C@@H](NC(=O)[C@H](C)NC(=O)[C@@H]1CCCNC(=O)C[C@H](NC(=O)[C@H](CCCNC(=N)N)NC(=O)CC[C@H](NC(=O)CCCCCCCCCCCCCCCCCCC(=O)O)C(=O)O)C(=O)NCC(=O)N[C@@H]([C@@H](C)O)C(=O)N[C@@H](C)C(=O)N[C@@H]([C@@H](C)O)C(=O)N1)[C@@H](C)O)[C@@H](C)O) [Compound 22]
5 | 0.336 nM | 0.844 nM | {C20 diacid-γGlu}-RDGTAT[Orn]ATERLA[Aad]FLQRATF[Sar]A[NMeI]LSSTEVGSNT[Hyp]-NH2 (lactam 2-7; SMILES CC[C@H](C)[C@@H](C(=O)N[C@@H](CC(C)C)C(=O)N[C@@H](CO)C(=O)N[C@@H](CO)C(=O)N[C@H](C(=O)N[C@@H](CCC(=O)O)C(=O)N[C@H](C(=O)NCC(=O)N[C@@H](CO)C(=O)N[C@@H](CC(N)=O)C(=O)N[C@H](C(=O)N1C[C@H](O)C[C@H]1C(N)=O)[C@@H](C)O)C(C)C)[C@@H](C)O)N(C)C(=O)[C@H](C)NC(=O)CN(C)C(=O)[C@H](Cc1ccccc1)NC(=O)[C@@H](NC(=O)[C@H](C)NC(=O)[C@H](CCCNC(=N)N)NC(=O)[C@H](CCC(N)=O)NC(=O)[C@H](CC(C)C)NC(=O)[C@H](Cc1ccccc1)NC(=O)[C@H](CCCC(=O)O)NC(=O)[C@H](C)NC(=O)[C@H](CC(C)C)NC(=O)[C@H](CCCNC(=N)N)NC(=O)[C@H](CCC(=O)O)NC(=O)[C@@H](NC(=O)[C@H](C)NC(=O)[C@@H]1CCCNC(=O)C[C@H](NC(=O)[C@H](CCCNC(=N)N)NC(=O)CC[C@H](NC(=O)CCCCCCCCCCCCCCCCCCC(=O)O)C(=O)O)C(=O)NCC(=O)N[C@@H]([C@@H](C)O)C(=O)N[C@@H](C)C(=O)N[C@@H]([C@@H](C)O)C(=O)N1)[C@@H](C)O)[C@@H](C)O) [Compound 25]
